Assay results reported in US6784155B1, “Inhibitor and stimulator of stem cell proliferation and uses thereof” (Wellstat Therapeutics Corporation, priority 1996, dated 2004).
Positions of bridges follow the written chain, without caps; N, C: chain ends. No end group written: not given here.

Tests used:
CFU-GEMM = CFU-GEMM cycling assay, human umbilical cord blood cells; assay type: cell-based; settings: Table 32, cord blood mononuclear cells
Procedure: In order to investigate the ability of purified INPROL from porcine bone marrow to affect cycling on human progenitors, umbilical cord blood cells were obtained. Either the total mononuclear cell fraction obtained after separation on Ficoll or the CD34^+ fraction obtained after fractionation on anti-CD34 affinity columns (CellPro Inc.) was used. Cells were incubated for 48 hours in vitro in the presence of interleukin 3 (IL-3) and stem cell factor (SCF) (100 ng/ml each) in order to ensure that the early stem cells were in cycle. After this preincubation, cycling assays were conducted as described in Example 14 for the mouse except that CFU-GEMM (instead of CFU-MIX) were counted on Day 18 after plating.
The human cord blood CFU-GEMM cycling assay was conducted as in Example 19. Specifically, mononuclear cells were isolated from human umbilical cord blood cells and adjusted to 24×10^4 cells/ml in IMDM tissue culture medium supplemented with 10% FBS, 100 ng/ml kit ligand and 100 ng/ml human IL-3. The cells were incubated for 48 hours at 37° C.
After incubation, cells were washed and resuspended in serun-free NDM at a concentration of 10^6 cells/ml. One ml of cells was added to each of two polypropylene tubes per condition and the cycling assay conducted as in Example 24 for mouse bone marrow. After the Ara C incubation cells were washed with cold NDM and adjusted to 10,000 to 20,000 cells per 0.5 ml IMDM and mixed with 5 ml Methocult H4433 (Stem Cell Technologies). Alternatively, Methocult H4435 methylcellulose medium (Stem Cell Technologies) was used in which case the cell concentration was adjusted to 2500-5000 cells per 0.5 ml IMDM. The cells were plated as in Example 24 and CFU-GEMM colonies scored on days 14-18.

CFU-MIX [1] = experiment: CFU-MIX cycling assay in vitro (Ara C kill); assay type: cell-based, mouse; settings: Table 19, 100 ng/ml
Procedure: A similar assay can be performed in vitro, using the cycling status of CFU-MIX instead of CFU-S. The assay is performed as described above for the CFU-S assay except that cytosine arabinoside (Ara C, 30 micrograms/ml) is used as the cycle-specific toxic agent instead of high dose tritiated thymidine (see B. I. Lord in Haemopoiesis—A Practical Approach, N. G. Testa and G. Molineux (Eds.), IRL Press 1993; Pragnell et al. in Culture of Hematopoietic Cells, R. I. Freshney, I. B. Pragnell and M. G. Freshney (Eds.), Wiley Liss 1994) and a mouse strain with high endogenous cycling rates (Balb/c) is used instead of testosterone-treated BDFI mice.
(§1) 24 hours later (Day 1), varying doses of peptide 43-55 or vehicle were injected i.v. Bone marrow was harvested on Day 2 and the […] cycling assay conducted as in Example 14. Specifically, mice were sacrificed and single cell bone marrow suspensions prepared from the femurs. The cells were washed once and the concentration adjusted to 5×10^6 cells/ml in Fischer medium. For each test condition, one milliliter of cells was added to each of two polypropylene tubes. The tubes were incubated at 37° C. for 3 hours without (“Control”) or with (“Experimental”) the appropriate concentration of test substance. At the end of the incubation, 30 μg/ml of cytosine arabinoside (“Ara C” (Sigma)) was added to half of the tubes and the same volume of Fischer's medium was added to the others. The tubes were incubated for a further 1 hour at 37° C., after which they were placed on ice and washed twice with cold Fischer medium.
(§2) The cells were readjusted to 5×10^4-10^6/ml in Fischer's medium and 0.5 ml of cell suspension added to 5 ml of Methocult M3430 methylcellulose medium (Stem Cell Technologies, Vancouver, British Columbia). The mixture was vigorously mixed with a vortex and 1 ml was dispensed into each of five 35 mm dishes. The 35 mm dishes were in turn placed in a covered 150 mm dish with one open 35 mm dish containing sterile water. CFU-MIX colonies were counted with the use of an inverted microscope after 7 days of incubation at 37° C.
Differences in colony number between the tubes treated with medium versus the tubes treated with Ara C represent the percentage of cells in cycle under that condition according to the formula:
a=Number of CFU-MIX from tube incubated with medium alone
b=Number of CFU-MIX from tube incubated with Ara C

CFU-MIX [2] = experiment: CFU-MIX cycling assay after in vivo injection into testosterone or 5FU treated mice; parameters: species or system mouse; settings: Table 23, 5FU-pretreated animals, 0.5 ng i.v. per 20 gram mouse
Procedure: In order to test the ability of purified porcine hemoglobin chains to act in vivo, BDF1 mice were injected with testosterone propionate as described in Example 1. Twenty four hours later, mice received 500 ng of either pINPROL, porcine hemoglobin alpha chain (purified from peripheral red blood cells as in FIG. 21), porcine beta chain (purified from peripheral red blood cells as in FIG. 21) or the equivalent volume of carrier intravenously. Forty eight hours later the bone marrow from each mouse was harvested and the CFU-MIX assay conducted as described in Example 14.
To assess the stem cell inhibitory activity of peptide 43-55 in vivo, B6D2 F1 mice were pre-treated with testosterone propionate as described in Example 1 or with 5FU. Specifically, testosterone propionate (100 mg/kg body weight) was injected i.p. on Day 0 into mice. Alternatively, mice were injected on Day 0 with 5FU ([…] body weight).
as §1, §2
Differences in colony number between the tubes treated with medium versus the tubes treated with Ara C represent the percentage of cells in cycle under that condition according to the formula: […]

[3] = Distribution of ubiquitin fusion proteins between soluble fraction and precipitate of E. coli lysate (SDS-PAGE); assay type: physicochemical; settings: after centrifugation of the bacterial lysate
Procedure: To obtain protein for assay, 100 ml starter cultures in 250 ml shake flasks were grown from single colonies by overnight incubation (16-20 hours) in 2×YT medium with ampicillin (100 μg/ml), neomycin (10 μg/ml) and 1% glucose. Shaker flask cultures were maintained at 30° C. and 250 rpm in a New Brunswick environmental shaker incubator. The next morning the culture was diluted to liter with medium Cells were induced by IPTG addition to 1 mM (final dilution) at OD600=0.5 and harvested at OD600=0.8 by centrifugation. The harvested cells were resuspended in hypotonic lysis buffer (100 μl of 50 mM Tris, pH 10.0). The bacterial cells were lysed by subjecting the suspension to three cycles of freeze-thaw (dry ice-ethanol bath for freezing and 60° C. for thawing). The suspension was then sonicated for 10 min and centrifuged at 12,000 g for 10 min. The resulting supernatant was designated as “S1”. The cell pellet was resuspended in 50 mM Tris, pH10 and 2×SDS tricine loading buffer (Novex, San Diego, Calif.) (1:1). The mixture was then heated at 95° C. for 15 min and centrifuged at 12,000 g for 10 min. The portion of the precipitate capable of being resolubilized in this manner was called “P1”. The portion of the precipitate derived from the remaining pellet was called “P2”. P2 was resuspended in loading buffer as for P1. Samples from S1, P1 and P2 were analyzed by SDS-PAGE. […]

mouse bone marrow cells = experiment: Colony formation after pre-incubation of bone marrow cells from 5FU-treated mice; assay type: cell-based; settings: 4 hours pre-incubation
Procedure: The purpose of this experiment was to compare the inhibitory effects of pre-incubation with pINPROL and MIP-1α on mouse bone marrow cells in vitro.
The following procedure was used:
in vivo: BDF1 mice, 6-15 weeks of age, are injected with 200 mg/kg 5FU i.p. 48 hours before harvesting marrow from the femurs.
in vitro: A single cell pooled suspension is counted and 5×10^6 cells are incubated in a total of 2 mls with or without pINPROL or MIP-1α, with 5% horse serum, IMDM media with added L-glutamine, at 37° C. and 5% CO2 for 4 hours. The cells are then washed twice and recounted. They are plated in methylcellulose in the following final conditions:
20 ng/ml recombinant murine IL-3
Plates were incubated for 11 days at 37° C. and 5% CO2 in 100% humidity. Colonies more than 50 cells were counted.

CFU-S = CFU-S proliferation assay, 3H-Thymidine suicide method (bone marrow incubated with test fractions); assay type: cell-based, mouse; settings: Table 8, bone marrow from testosterone treated mice, 200 ng/ml
Procedure: For the detection of stem cells proliferation the number of CFU-S in S-phase of the cell cycle was measured by the ^3H-Thymidine “suicide” method (Becker et al., Blood 26:296-308, 1965).
Immature hematopoietic progenitors-Colony Forming Units in spleen (CFU-S)—can be detected in vivo by forming macroscopic colonies in the spleens of lethally irradiated mice, 8-12 days after the intravenous injection of hematopoietic cells (Till & McCulloch, 1961).
For the standard CFU-S proliferation assay the method of ^3H-Thymidine “suicide” is usually applied (Becker et al., 1965). The method is based on incorporation of radiolabelled Thymidine, (^3H-Thymidine) a precursor of DNA into cells during DNA synthesis. The CFU-S which are in S-phase of the cycle at the time of testing, are killed by the high radioactivity and therefore not able to form colonies in spleen.
The inhibitor testing can not be done with the bone marrow stem cell population from unstimulated animals, as far as the inhibitor only effects cycling CFU-S, which are as low as 7-10% of the total CFU-S population in the bone marrow of normal mice.
To stimulate CFU-S proliferation, phenylhydrazine (PHZ), or sublethal irradiation were used (Lord, 1976).
The TSP induced stimulation of CFU-S proliferation within 20-24 hours after injection and the effect could be seen for at least 7 days.
The procedure used for the screening of the fractions during purification of the Inhibitor was as follows:
Mice: BDF1 or CBF1 mice strains were used throughout all testing.
Donor mice were treated with a 10 mg/100 g dose of TSP by intraperitoneal injection of 0.2 ml/mouse in order to induce 30-35% of the CFU-S into S-phase.
Twenty-four hours later the bone marrow is taken from the femurs for the cell suspension preparation. […]
Recipient spleens are harvested on day 9-12 and fixed in Tellesnitsky's solution; the colonies are scored by eye score. The percentage of cells in S-phase are calculated using the formula. […]

HPP-CFC = HPP-CFC assay after 4 hour pre-incubation; assay type: cell-based, mouse; settings: 200 ng/ml, day 14
Procedure: An in vitro assay for assessing murine reconstituting stem cells and early precursors is the high proliferative potential colony ([…]) assay; other related assays, e.g., CFU-A, CFU-GM, CFU-E, and CFU-GEMM, detect progressively restricted progenitor populations (M. Moore, Blood […]:2122-2128, 1991).
BDF1 mice were treated with 5-fluorouracil (200 mg/kg i.p.) before their bone marrow was assayed for HPP-CFC numbers. Cells were washed by centrifugation and incubated at densities of 10^6 to 5×10^6/ml in medium with either no added agent (Controls), pINPROL (25 ng/ml) or MIP-1α (200 ng/ml) for 4 hours. After incubation, cells were washed and plated in agar (0.3%) with 30% FCS and combined conditioned medium from 5637 and WEHI-3B cell lines (7.5% of each conditioned medium, as recommended by Sharp et al., 1991). Plating concentration was 5×10^4 cells/ml in 60 mm dishes.

Cys-Phe-Pro-His-Phe-Asp-Leu-Ser-His-Gly-Ser-Ala-Gln-Val-Cys (CFPHFDLSHGSAQVC; disulfide 1-15 (inferred)) [Cyclic Peptide 43-55, cyclic derivative of the 43-55 peptide]
% Kill (CFU-GEMM; 1 ng/ml): 32% | % Kill (CFU-GEMM; 10 ng): 0% | % Kill (CFU-GEMM; 100 ng/ml): 11% | % Kill (CFU-MIX [1]): 0% | % Kill (CFU-MIX [2]): 14% | fraction of bacterial lysate containing the peptide [3]: contained in the soluble fraction

B1: MIP-1α: cytokine macrophage inflammatory protein 1-alpha, previously characterized stem cell inhibitor (protein, UniProt P10147 24-92, looked up)
C-C motif chemokine 3: SLAADTPTACCFSYTSRQIPQNFIADYFETSSQCSKPGVIFLTKRSRQVCADPSEEWVQKYVSDLELSA
Percent of Control (mouse bone marrow cells; colonies after 11 days): 114% | Colony Number (mouse bone marrow cells; colonies more than 50 cells after 11 days): 35.25 | % Kill (CFU-S): 13% | % of Control (HPP-CFC): 101% | HPP-CFU (HPP-CFC): 15.8 ± 0.9
